Assay results from article PMC10104018.

How the values were obtained:
[1] = biological target: T1, RGG-GFP-RGG (His), purified (UniProt D0PV95 1-168); experiment: confocal fluorescence co-localization to condensates
T1 chain: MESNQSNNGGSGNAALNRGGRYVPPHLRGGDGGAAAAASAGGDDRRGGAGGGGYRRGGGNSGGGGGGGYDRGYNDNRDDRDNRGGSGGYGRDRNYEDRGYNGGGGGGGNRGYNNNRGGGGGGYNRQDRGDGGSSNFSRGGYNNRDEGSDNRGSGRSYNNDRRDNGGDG

[2] = biological target: T2, RGG-GFP-RGG, TXTL-expressed (UniProt D0PV95 1-168); experiment: as above
T2 chain: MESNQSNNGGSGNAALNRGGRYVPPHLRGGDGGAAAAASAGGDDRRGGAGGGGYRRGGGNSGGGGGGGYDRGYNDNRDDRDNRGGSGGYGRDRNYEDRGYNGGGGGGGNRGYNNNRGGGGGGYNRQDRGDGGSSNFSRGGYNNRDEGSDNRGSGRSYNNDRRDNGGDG

B1: Cy5-U15 (ssRNA)
RNA: UUUUUUUUUUUUUUU
[1]
  binding result: binds
[2]
  binding result: binds
